Results published in US20250171562A1.

Target: mixture of three Der p 2 specific recombinant human IgE clones H10, H12, P4E (human) (UniProt P01854)
Assay: RBL-SX38 IgE displacement, FACS

Sequence of mixture of three Der p 2 specific recombinant human IgE clones H10, H12, P4E (human) (P01854 other isoform, or with tags, fused parts or gaps): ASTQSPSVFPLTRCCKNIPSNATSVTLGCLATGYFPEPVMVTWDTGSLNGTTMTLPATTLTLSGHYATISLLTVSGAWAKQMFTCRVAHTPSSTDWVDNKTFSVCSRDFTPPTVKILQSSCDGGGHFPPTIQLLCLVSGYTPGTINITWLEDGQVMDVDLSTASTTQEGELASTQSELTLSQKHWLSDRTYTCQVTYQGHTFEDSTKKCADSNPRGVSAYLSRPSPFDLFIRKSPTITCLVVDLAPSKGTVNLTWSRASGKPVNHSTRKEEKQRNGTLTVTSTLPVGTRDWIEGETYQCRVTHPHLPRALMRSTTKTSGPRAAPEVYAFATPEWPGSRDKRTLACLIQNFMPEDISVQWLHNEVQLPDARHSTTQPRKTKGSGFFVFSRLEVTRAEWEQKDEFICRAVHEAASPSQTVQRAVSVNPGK

Binder | EC50 | Max effect/effect 1 µM
NIgG4D1A1(G4S)1 (Fc fusion) chain 1: DVQLQESGGGLVQAGGSLRLSCAASGLTFSRCDMGWFRQAPGKEREFVARISANGASTHYADFVKGRFTISRDNAKNTVYLQMNYLKPEDTAVYICAAARVPVTWQLYDYWGQGTQVTVSGGGGSGPPCPPCPAPEFLGGPSVFLFPPKPKDTLMISRTPEVTCVVVDVSQEDPEVQFNWYVDGVEVHNAKTKPREEQFNSTYRVVSVLTVLHQDWLNGKEYKCKVSNKGLPSSIEKTISKAKGQPREPQVYTLPPCQEEMTKNQVSLWCLVKGFYPSDIAVEWESNGQPENNYKTTPPVLDSDGSFFLYSRLTVDKSRWQEGNVFSCSVMHEALHNHYTQKSLSLSLGK chain 2: EVQLLESGGGLVQPGGSLRLSCAASGFTFGNYDMAWVRQAPGKRPEWVSSIDTGGDITHYADSVKGRFTISRDNAKNTLYLQMNSLRPEDTAVYWCATDEEYALGPNEFDYYGQGTLVTVSSGGGGSGPPCPPCPAPEFLGGPSVFLFPPKPKDTLMISRTPEVTCVVVDVSQEDPEVQFNWYVDGVEVHNAKTKPREEQFNSTYRVVSVLTVLHQDWLNGKEYKCKVSNKGLPSSIEKTISKAKGQPREPQVCTLPPSQEEMTKNQVSLSCAVKGFYPSDIAVEWESNGQPENNYKTTPPVLDSDGSFFLVSRLTVDKSRWQEGNVFSCSVMHEALHNHYTQKSLSLSLGK | 1.4 nM | 99%
NIgG4D1A1(RS) (Fc fusion) chain 1: DVQLQESGGGLVQAGGSLRLSCAASGLTFSRCDMGWFRQAPGKEREFVARISANGASTHYADFVKGRFTISRDNAKNTVYLQMNYLKPEDTAVYICAAARVPVTWQLYDYWGQGTQVTVSRSGPPCPPCPAPEFLGGPSVFLFPPKPKDTLMISRTPEVTCVVVDVSQEDPEVQFNWYVDGVEVHNAKTKPREEQFNSTYRVVSVLTVLHQDWLNGKEYKCKVSNKGLPSSIEKTISKAKGQPREPQVYTLPPCQEEMTKNQVSLWCLVKGFYPSDIAVEWESNGQPENNYKTTPPVLDSDGSFFLYSRLTVDKSRWQEGNVFSCSVMHEALHNHYTQKSLSLSLGK chain 2: EVQLLESGGGLVQPGGSLRLSCAASGFTFGNYDMAWVRQAPGKRPEWVSSIDTGGDITHYADSVKGRFTISRDNAKNTLYLQMNSLRPEDTAVYWCATDEEYALGPNEFDYYGQGTLVTVSSRSGPPCPPCPAPEFLGGPSVFLFPPKPKDTLMISRTPEVTCVVVDVSQEDPEVQFNWYVDGVEVHNAKTKPREEQFNSTYRVVSVLTVLHQDWLNGKEYKCKVSNKGLPSSIEKTISKAKGQPREPQVCTLPPSQEEMTKNQVSLSCAVKGFYPSDIAVEWESNGQPENNYKTTPPVLDSDGSFFLVSRLTVDKSRWQEGNVFSCSVMHEALHNHYTQKSLSLSLGK | 1.6 nM | 97%
CIgG4B2A1(G4S)3 (Fc fusion) chain 1: GPPCPPCPAPEFLGGPSVFLFPPKPKDTLMISRTPEVTCVVVDVSQEDPEVQFNWYVDGVEVHNAKTKPREEQFNSTYRVVSVLTVLHQDWLNGKEYKCKVSNKGLPSSIEKTISKAKGQPREPQVYTLPPCQEEMTKNQVSLWCLVKGFYPSDIAVEWESNGQPENNYKTTPPVLDSDGSFFLYSRLTVDKSRWQEGNVFSCSVMHEALHNHYTQKSLSLSLGKGGGGSGGGGSGGGGSQVQLVESGGGLVQAGGSLRLSCAVFGSTFSNNVADWYRQAPGKQRELVARISASGATREYGDSVKGRFTISRDDAKNTMYLQMNNLKPEDTAVYRCHKIEWEDLSRKDYWGQGTQVTVS chain 2: GPPCPPCPAPEFLGGPSVFLFPPKPKDTLMISRTPEVTCVVVDVSQEDPEVQFNWYVDGVEVHNAKTKPREEQFNSTYRVVSVLTVLHQDWLNGKEYKCKVSNKGLPSSIEKTISKAKGQPREPQVCTLPPSQEEMTKNQVSLSCAVKGFYPSDIAVEWESNGQPENNYKTTPPVLDSDGSFFLVSRLTVDKSRWQEGNVFSCSVMHEALHNHYTQKSLSLSLGKGGGGSGGGGSGGGGSEVQLLESGGGLVQPGGSLRLSCAASGFTFGNYDMAWVRQAPGKRPEWVSSIDTGGDITHYADSVKGRFTISRDNAKNTLYLQMNSLRPEDTAVYWCATDEEYALGPNEFDYYGQGTLVTVSS | 1.5 nM | 98%
CIgG4B2A1(G4S)2 (Fc fusion) chain 1: GPPCPPCPAPEFLGGPSVFLFPPKPKDTLMISRTPEVTCVVVDVSQEDPEVQFNWYVDGVEVHNAKTKPREEQFNSTYRVVSVLTVLHQDWLNGKEYKCKVSNKGLPSSIEKTISKAKGQPREPQVYTLPPCQEEMTKNQVSLWCLVKGFYPSDIAVEWESNGQPENNYKTTPPVLDSDGSFFLYSRLTVDKSRWQEGNVFSCSVMHEALHNHYTQKSLSLSLGKGGGGSGGGGSQVQLVESGGGLVQAGGSLRLSCAVFGSTFSNNVADWYRQAPGKQRELVARISASGATREYGDSVKGRFTISRDDAKNTMYLQMNNLKPEDTAVYRCHKIEWEDLSRKDYWGQGTQVTVS chain 2: GPPCPPCPAPEFLGGPSVFLFPPKPKDTLMISRTPEVTCVVVDVSQEDPEVQFNWYVDGVEVHNAKTKPREEQFNSTYRVVSVLTVLHQDWLNGKEYKCKVSNKGLPSSIEKTISKAKGQPREPQVCTLPPSQEEMTKNQVSLSCAVKGFYPSDIAVEWESNGQPENNYKTTPPVLDSDGSFFLVSRLTVDKSRWQEGNVFSCSVMHEALHNHYTQKSLSLSLGKGGGGSGGGGSEVQLLESGGGLVQPGGSLRLSCAASGFTFGNYDMAWVRQAPGKRPEWVSSIDTGGDITHYADSVKGRFTISRDNAKNTLYLQMNSLRPEDTAVYWCATDEEYALGPNEFDYYGQGTLVTVSS | 1.6 nM | 99%
CIgG4D1A1(RS) (Fc fusion) chain 1: GPPCPPCPAPEFLGGPSVFLFPPKPKDTLMISRTPEVTCVVVDVSQEDPEVQFNWYVDGVEVHNAKTKPREEQFNSTYRVVSVLTVLHQDWLNGKEYKCKVSNKGLPSSIEKTISKAKGQPREPQVYTLPPCQEEMTKNQVSLWCLVKGFYPSDIAVEWESNGQPENNYKTTPPVLDSDGSFFLYSRLTVDKSRWQEGNVFSCSVMHEALHNHYTQKSLSLSLGKRSDVQLQESGGGLVQAGGSLRLSCAASGLTFSRCDMGWFRQAPGKEREFVARISANGASTHYADFVKGRFTISRDNAKNTVYLQMNYLKPEDTAVYICAAARVPVTWQLYDYWGQGTQVTVS chain 2: GPPCPPCPAPEFLGGPSVFLFPPKPKDTLMISRTPEVTCVVVDVSQEDPEVQFNWYVDGVEVHNAKTKPREEQFNSTYRVVSVLTVLHQDWLNGKEYKCKVSNKGLPSSIEKTISKAKGQPREPQVCTLPPSQEEMTKNQVSLSCAVKGFYPSDIAVEWESNGQPENNYKTTPPVLDSDGSFFLVSRLTVDKSRWQEGNVFSCSVMHEALHNHYTQKSLSLSLGKRSEVQLLESGGGLVQPGGSLRLSCAASGFTFGNYDMAWVRQAPGKRPEWVSSIDTGGDITHYADSVKGRFTISRDNAKNTLYLQMNSLRPEDTAVYWCATDEEYALGPNEFDYYGQGTLVTVSS | – | 16%
NIgG4D1A1(G4S)3 (Fc fusion) chain 1: DVQLQESGGGLVQAGGSLRLSCAASGLTFSRCDMGWFRQAPGKEREFVARISANGASTHYADFVKGRFTISRDNAKNTVYLQMNYLKPEDTAVYICAAARVPVTWQLYDYWGQGTQVTVSGGGGSGGGGSGGGGSGPPCPPCPAPEFLGGPSVFLFPPKPKDTLMISRTPEVTCVVVDVSQEDPEVQFNWYVDGVEVHNAKTKPREEQFNSTYRVVSVLTVLHQDWLNGKEYKCKVSNKGLPSSIEKTISKAKGQPREPQVYTLPPCQEEMTKNQVSLWCLVKGFYPSDIAVEWESNGQPENNYKTTPPVLDSDGSFFLYSRLTVDKSRWQEGNVFSCSVMHEALHNHYTQKSLSLSLGK chain 2: EVQLLESGGGLVQPGGSLRLSCAASGFTFGNYDMAWVRQAPGKRPEWVSSIDTGGDITHYADSVKGRFTISRDNAKNTLYLQMNSLRPEDTAVYWCATDEEYALGPNEFDYYGQGTLVTVSSGGGGSGGGGSGGGGSGPPCPPCPAPEFLGGPSVFLFPPKPKDTLMISRTPEVTCVVVDVSQEDPEVQFNWYVDGVEVHNAKTKPREEQFNSTYRVVSVLTVLHQDWLNGKEYKCKVSNKGLPSSIEKTISKAKGQPREPQVCTLPPSQEEMTKNQVSLSCAVKGFYPSDIAVEWESNGQPENNYKTTPPVLDSDGSFFLVSRLTVDKSRWQEGNVFSCSVMHEALHNHYTQKSLSLSLGK | 2 nM | 99%
NIgG4D1A1(G4S)2 (Fc fusion) chain 1: DVQLQESGGGLVQAGGSLRLSCAASGLTFSRCDMGWFRQAPGKEREFVARISANGASTHYADFVKGRFTISRDNAKNTVYLQMNYLKPEDTAVYICAAARVPVTWQLYDYWGQGTQVTVSGGGGSGGGGSGPPCPPCPAPEFLGGPSVFLFPPKPKDTLMISRTPEVTCVVVDVSQEDPEVQFNWYVDGVEVHNAKTKPREEQFNSTYRVVSVLTVLHQDWLNGKEYKCKVSNKGLPSSIEKTISKAKGQPREPQVYTLPPCQEEMTKNQVSLWCLVKGFYPSDIAVEWESNGQPENNYKTTPPVLDSDGSFFLYSRLTVDKSRWQEGNVFSCSVMHEALHNHYTQKSLSLSLGK chain 2: EVQLLESGGGLVQPGGSLRLSCAASGFTFGNYDMAWVRQAPGKRPEWVSSIDTGGDITHYADSVKGRFTISRDNAKNTLYLQMNSLRPEDTAVYWCATDEEYALGPNEFDYYGQGTLVTVSSGGGGSGGGGSGPPCPPCPAPEFLGGPSVFLFPPKPKDTLMISRTPEVTCVVVDVSQEDPEVQFNWYVDGVEVHNAKTKPREEQFNSTYRVVSVLTVLHQDWLNGKEYKCKVSNKGLPSSIEKTISKAKGQPREPQVCTLPPSQEEMTKNQVSLSCAVKGFYPSDIAVEWESNGQPENNYKTTPPVLDSDGSFFLVSRLTVDKSRWQEGNVFSCSVMHEALHNHYTQKSLSLSLGK | 1.6 nM | 100%
CIgG4B2A1(G4S)1 (Fc fusion) chain 1: GPPCPPCPAPEFLGGPSVFLFPPKPKDTLMISRTPEVTCVVVDVSQEDPEVQFNWYVDGVEVHNAKTKPREEQFNSTYRVVSVLTVLHQDWLNGKEYKCKVSNKGLPSSIEKTISKAKGQPREPQVYTLPPCQEEMTKNQVSLWCLVKGFYPSDIAVEWESNGQPENNYKTTPPVLDSDGSFFLYSRLTVDKSRWQEGNVFSCSVMHEALHNHYTQKSLSLSLGKGGGGSQVQLVESGGGLVQAGGSLRLSCAVFGSTFSNNVADWYRQAPGKQRELVARISASGATREYGDSVKGRFTISRDDAKNTMYLQMNNLKPEDTAVYRCHKIEWEDLSRKDYWGQGTQVTVS chain 2: GPPCPPCPAPEFLGGPSVFLFPPKPKDTLMISRTPEVTCVVVDVSQEDPEVQFNWYVDGVEVHNAKTKPREEQFNSTYRVVSVLTVLHQDWLNGKEYKCKVSNKGLPSSIEKTISKAKGQPREPQVCTLPPSQEEMTKNQVSLSCAVKGFYPSDIAVEWESNGQPENNYKTTPPVLDSDGSFFLVSRLTVDKSRWQEGNVFSCSVMHEALHNHYTQKSLSLSLGKGGGGSEVQLLESGGGLVQPGGSLRLSCAASGFTFGNYDMAWVRQAPGKRPEWVSSIDTGGDITHYADSVKGRFTISRDNAKNTLYLQMNSLRPEDTAVYWCATDEEYALGPNEFDYYGQGTLVTVSS | 8.8 nM | 93%
